From article PMC2756588

The binders below were run against T1, Cyk3, Q07533 (assay: SPOT array). Conditions: median of control spots 1451.
T1 sequence (Q07533 1-83, looked up): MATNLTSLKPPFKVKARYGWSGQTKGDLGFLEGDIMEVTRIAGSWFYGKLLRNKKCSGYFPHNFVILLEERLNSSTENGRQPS

Row | Binder | SPOT intensity
1 | FYHRPAPKPPVTKKV | 0
2 | MAMRPIPPLPTESEY | 0
3 | RKRAPTPPAPSRSEK | 1

Each binder was assayed against T2, Bzz1-2, P38822 (assay: SPOT array). Conditions: median of control spots 4538.
T2 sequence (P38822 568-633, looked up): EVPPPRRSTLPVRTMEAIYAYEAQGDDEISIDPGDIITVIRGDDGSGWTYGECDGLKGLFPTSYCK

Row | Binder | SPOT intensity
4 | FYHRPAPKPPVTKKV | 186
5 | MAMRPIPPLPTESEY | 2
6 | RKRAPTPPAPSRSEK | 946

These binders were tested against T3, Bud14, P27637 (assay: SPOT array). Conditions: median of control spots 956.
T3 sequence (P27637 247-328, looked up): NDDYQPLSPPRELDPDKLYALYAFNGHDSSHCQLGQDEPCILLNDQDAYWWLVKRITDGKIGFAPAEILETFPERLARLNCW

Row | Binder | SPOT intensity
7 | FYHRPAPKPPVTKKV | 0
8 | MAMRPIPPLPTESEY | 0
9 | RKRAPTPPAPSRSEK | 6

The binders below were run against T4, Abp1, P15891 (assay: SPOT array). Conditions: median of control spots 935.
T4 sequence (P15891 535-592, looked up): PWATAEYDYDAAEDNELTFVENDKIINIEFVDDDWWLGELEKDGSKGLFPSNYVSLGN

Row | Binder | SPOT intensity
10 | FYHRPAPKPPVTKKV | 114
11 | MAMRPIPPLPTESEY | 6
12 | RKRAPTPPAPSRSEK | 274

What follows are binders tested against T5, Myo5, Q04439 (assay: SPOT array). Conditions: median of control spots 471.
T5 sequence (Q04439 1072-1160, looked up): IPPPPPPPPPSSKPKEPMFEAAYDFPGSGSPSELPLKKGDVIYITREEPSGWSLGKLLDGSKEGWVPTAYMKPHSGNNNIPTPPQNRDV

Row | Binder | SPOT intensity
13 | FYHRPAPKPPVTKKV | 12
14 | MAMRPIPPLPTESEY | 27
15 | RKRAPTPPAPSRSEK | 0

What follows are binders tested against T6, Nbp2, Q12163 (assay: SPOT array). Conditions: median of control spots 357.
T6 sequence (Q12163 103-180, looked up): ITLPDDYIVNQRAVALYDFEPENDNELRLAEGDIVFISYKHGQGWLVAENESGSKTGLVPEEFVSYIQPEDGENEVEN

Row | Binder | SPOT intensity
16 | FYHRPAPKPPVTKKV | 314
17 | MAMRPIPPLPTESEY | 0
18 | RKRAPTPPAPSRSEK | 283

What follows are binders tested against T7, Sla1-2, P32790 (assay: SPOT array). Conditions: median of control spots 712.
T7 sequence (P32790 60-140, looked up): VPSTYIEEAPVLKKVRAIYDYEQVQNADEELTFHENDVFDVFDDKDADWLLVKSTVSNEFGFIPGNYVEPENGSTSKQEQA

Row | Binder | SPOT intensity
19 | FYHRPAPKPPVTKKV | 0
20 | MAMRPIPPLPTESEY | 0
21 | RKRAPTPPAPSRSEK | 0

What follows are binders tested against Rvs167, P39743 (assay: SPOT array). Conditions: median of control spots 2707.
Sequence of Rvs167, P39743 (P39743 419-482): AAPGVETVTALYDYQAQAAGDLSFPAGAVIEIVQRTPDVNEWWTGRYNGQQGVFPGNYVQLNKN

Row | Binder | SPOT intensity
22 | FYHRPAPKPPVTKKV | 0
23 | MAMRPIPPLPTESEY | 1460
24 | RKRAPTPPAPSRSEK | 9

Each binder was assayed against T8, Pex13, P80667 (assay: SPOT array). Conditions: median of control spots 1341.
T8 sequence (P80667 295-386, looked up): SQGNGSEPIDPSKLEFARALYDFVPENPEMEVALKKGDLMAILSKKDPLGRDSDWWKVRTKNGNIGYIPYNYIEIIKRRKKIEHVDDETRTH

Row | Binder | SPOT intensity
25 | FYHRPAPKPPVTKKV | 143
26 | MAMRPIPPLPTESEY | 235
27 | RKRAPTPPAPSRSEK | 6

The binders below were run against T9, Boi2, P39969 (assay: SPOT array). Conditions: median of control spots 1161.
T9 sequence (P39969 32-116, looked up): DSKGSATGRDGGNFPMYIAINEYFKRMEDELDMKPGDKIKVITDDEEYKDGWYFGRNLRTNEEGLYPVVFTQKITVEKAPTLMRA

Row | Binder | SPOT intensity
28 | FYHRPAPKPPVTKKV | 0
29 | MAMRPIPPLPTESEY | 1
30 | RKRAPTPPAPSRSEK | 0

The binders below were run against T10, Lsb4, P32793 (assay: SPOT array). Conditions: median of control spots 397.
T10 sequence (P32793 402-468, looked up): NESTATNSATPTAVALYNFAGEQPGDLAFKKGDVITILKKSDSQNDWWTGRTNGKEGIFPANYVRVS

Row | Binder | SPOT intensity
31 | FYHRPAPKPPVTKKV | 3
32 | MAMRPIPPLPTESEY | 278
33 | RKRAPTPPAPSRSEK | 29

These binders were tested against GST (assay: SPOT array). Conditions: median of control spots 978.

Row | Binder | SPOT intensity
34 | FYHRPAPKPPVTKKV | 0
35 | MAMRPIPPLPTESEY | 0
36 | RKRAPTPPAPSRSEK | 1

These binders were tested against T11, Bzz1-1, P38822 (assay: SPOT array). Conditions: median of control spots 4446.
T11 sequence (P38822 478-572, looked up): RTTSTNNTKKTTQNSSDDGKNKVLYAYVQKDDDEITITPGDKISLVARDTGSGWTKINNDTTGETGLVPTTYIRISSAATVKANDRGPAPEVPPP

Row | Binder | SPOT intensity
37 | FYHRPAPKPPVTKKV | 16
38 | MAMRPIPPLPTESEY | 0
39 | RKRAPTPPAPSRSEK | 27

These binders were tested against T12, Bbc1, P47068 (assay: SPOT array). Conditions: median of control spots 796.
T12 sequence (P47068 1-78, looked up): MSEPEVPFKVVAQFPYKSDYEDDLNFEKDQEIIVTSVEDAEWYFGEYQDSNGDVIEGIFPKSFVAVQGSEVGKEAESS

Row | Binder | SPOT intensity
40 | FYHRPAPKPPVTKKV | 45
41 | MAMRPIPPLPTESEY | 0
42 | RKRAPTPPAPSRSEK | 105

The binders below were run against T13, Lsb1, P53281 (assay: SPOT array). Conditions: median of control spots 388.
T13 sequence (P53281 45-122, looked up): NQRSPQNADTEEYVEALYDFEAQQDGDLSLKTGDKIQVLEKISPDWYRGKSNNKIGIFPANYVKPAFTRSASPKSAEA

Row | Binder | SPOT intensity
43 | FYHRPAPKPPVTKKV | 63
44 | MAMRPIPPLPTESEY | 174
45 | RKRAPTPPAPSRSEK | 1290

What follows are binders tested against T14, Hof1, Q05080 (assay: SPOT array). Conditions: median of control spots 4086.
T14 sequence (Q05080 590-669, looked up): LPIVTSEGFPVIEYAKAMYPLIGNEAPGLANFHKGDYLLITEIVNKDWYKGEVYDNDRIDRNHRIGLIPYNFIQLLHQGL

Row | Binder | SPOT intensity
46 | FYHRPAPKPPVTKKV | 0
47 | MAMRPIPPLPTESEY | 1560
48 | RKRAPTPPAPSRSEK | 0

The binders below were run against T15, Cdc25, P04821 (assay: SPOT array). Conditions: median of control spots 969.
T15 sequence (P04821 50-136, looked up): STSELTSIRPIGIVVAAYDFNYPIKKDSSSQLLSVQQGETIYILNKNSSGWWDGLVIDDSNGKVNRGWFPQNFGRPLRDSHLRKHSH

Row | Binder | SPOT intensity
49 | FYHRPAPKPPVTKKV | 0
50 | MAMRPIPPLPTESEY | 0
51 | RKRAPTPPAPSRSEK | 15

Each binder was assayed against Bem1-2, P29366 (assay: SPOT array). Conditions: median of control spots 4347.
Sequence of Bem1-2, P29366 (P29366 139-227): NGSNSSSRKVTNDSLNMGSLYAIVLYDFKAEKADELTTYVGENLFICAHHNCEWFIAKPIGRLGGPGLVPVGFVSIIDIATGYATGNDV

Row | Binder | SPOT intensity
52 | FYHRPAPKPPVTKKV | 4210
53 | MAMRPIPPLPTESEY | 0
54 | RKRAPTPPAPSRSEK | 0

These binders were tested against T16, Fus1, P11710 (assay: SPOT array). Conditions: median of control spots 1200.
T16 sequence (P11710 432-512, looked up): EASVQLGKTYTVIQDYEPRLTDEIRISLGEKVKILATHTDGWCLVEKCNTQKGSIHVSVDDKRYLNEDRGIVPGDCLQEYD

Row | Binder | SPOT intensity
55 | FYHRPAPKPPVTKKV | 0
56 | MAMRPIPPLPTESEY | 0
57 | RKRAPTPPAPSRSEK | 14

These binders were tested against T17, Lsb3, P43603 (assay: SPOT array). Conditions: median of control spots 406.
T17 sequence (P43603 385-451, looked up): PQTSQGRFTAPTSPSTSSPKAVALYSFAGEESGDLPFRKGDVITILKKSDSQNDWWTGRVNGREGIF

Row | Binder | SPOT intensity
58 | FYHRPAPKPPVTKKV | 5
59 | MAMRPIPPLPTESEY | 131
60 | RKRAPTPPAPSRSEK | 8

These binders were tested against Myo3, P36006 (assay: SPOT array). Conditions: median of control spots 468.

Row | Binder | SPOT intensity
61 | FYHRPAPKPPVTKKV | 37
62 | MAMRPIPPLPTESEY | 7
63 | RKRAPTPPAPSRSEK | 20

Each binder was assayed against T18, Sla1-3, P32790 (assay: SPOT array). Conditions: median of control spots 5475.
T18 sequence (P32790 344-424, looked up): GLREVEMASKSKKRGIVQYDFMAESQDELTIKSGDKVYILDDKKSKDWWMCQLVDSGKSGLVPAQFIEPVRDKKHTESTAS

Row | Binder | SPOT intensity
64 | FYHRPAPKPPVTKKV | 2040
65 | MAMRPIPPLPTESEY | 0
66 | RKRAPTPPAPSRSEK | 24

The binders below were run against T19, Pin3, Q06449 (assay: SPOT array). Conditions: median of control spots 2171.
T19 sequence (Q06449 53-122, looked up): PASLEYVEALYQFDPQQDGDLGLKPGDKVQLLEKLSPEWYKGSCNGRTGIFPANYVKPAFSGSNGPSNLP

Row | Binder | SPOT intensity
67 | FYHRPAPKPPVTKKV | 19
68 | MAMRPIPPLPTESEY | 4
69 | RKRAPTPPAPSRSEK | 7

Each binder was assayed against Bem1-1, P29366 (assay: SPOT array). Conditions: median of control spots 4282.
Sequence of Bem1-1, P29366 (P29366 55-141): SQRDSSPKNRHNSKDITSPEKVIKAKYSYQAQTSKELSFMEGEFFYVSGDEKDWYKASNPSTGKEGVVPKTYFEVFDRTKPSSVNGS

Row | Binder | SPOT intensity
70 | FYHRPAPKPPVTKKV | 0
71 | MAMRPIPPLPTESEY | 0
72 | RKRAPTPPAPSRSEK | 1

Each binder was assayed against T20, Boi1, P38041 (assay: SPOT array). Conditions: median of control spots 1162.
T20 sequence (P38041 1-86, looked up): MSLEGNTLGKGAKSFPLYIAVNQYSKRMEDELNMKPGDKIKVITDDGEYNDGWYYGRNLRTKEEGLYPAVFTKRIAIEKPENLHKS

Row | Binder | SPOT intensity
73 | FYHRPAPKPPVTKKV | 0
74 | MAMRPIPPLPTESEY | 0
75 | RKRAPTPPAPSRSEK | 1

What follows are binders tested against T21, Hse1, P38753 (assay: SPOT array). Conditions: median of control spots 1727.
T21 sequence (P38753 208-285, looked up): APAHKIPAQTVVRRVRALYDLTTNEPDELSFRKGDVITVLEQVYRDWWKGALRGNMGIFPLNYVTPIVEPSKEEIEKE

Row | Binder | SPOT intensity
76 | FYHRPAPKPPVTKKV | 78
77 | MAMRPIPPLPTESEY | 0
78 | RKRAPTPPAPSRSEK | 3

The binders below were run against Sho1, P40073 (assay: SPOT array). Conditions: median of control spots 1148.
Sequence of Sho1, P40073 (P40073 287-367): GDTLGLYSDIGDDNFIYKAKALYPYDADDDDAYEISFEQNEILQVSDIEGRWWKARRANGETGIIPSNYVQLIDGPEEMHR

Row | Binder | SPOT intensity
79 | FYHRPAPKPPVTKKV | 8
80 | MAMRPIPPLPTESEY | 30
81 | RKRAPTPPAPSRSEK | 99
